{
  "source": "paper PMC4351549",
  "biological_target": "CeHSP17 protein (small heat shock protein from Caenorhabditis elegans) (Caenorhabditis elegans)",
  "experiment": "cryo-EM structure; single particle 3D reconstruction, 14,217 particles, images obtained at 4°C, tetrahedral symmetry, 14.5 Å",
  "data": [
    {"substance": "CeHSP17 protein (small heat shock protein from Caenorhabditis elegans) (natural protein)", "values": [
      {"measurement": "stoichiometry N", "result": 24, "unit": "subunits"}
    ]}
  ]
}
